B1: NTB: NH3 terminus of N-type channel α1B subunit, residues 1-95, expressed as free peptide (SEQ ID NO.: 1) (protein, listed as Homo sapiens)
chain: MVRFGDELGGRYGGPGGGERARGGGAGGAGGPGPGGLQPGQRVLYKQSIAQRARTMALYNPIPVKQNCFTVNRSLFVFSEDNVVRKYAKRITEWP

Legend:
[1] = target: T1, I-IIB-YFP (Homo sapiens, UniProt Q00975); test: Live-cell FRET two-hybrid assay versus I-IIB-YFP in HEK293 cells; format: binding
T1 construct: I-IIB residues, 357-482; expressed in transfected cells; host or cells: HEK293
Excerpt: To confirm preferential interaction of NTB with I-IIB a live-cell FRET two-hybrid assay was used (Erickson et al., 2003), in which NTB, NTC, I-IIB, and I-IIC were fused to either CFP or YFP, and the resulting fusion constructs expressed pair-wise in mammalian HEK293 cells. Given a Forster distance of ˜50 Å for the CFP/YFP pair (Patterson et al., 2000), the presence of FRET in individual cells would give a strong indication of interpeptide binding in the mammalian intracellular milieu. This indication is generally characterized by a low false-positive rate (Erickson et al., 2003), so that FRET assays provide a useful complement to yeast two-hybrid assays (Allen et al., 1995). […] SCFP (the signal derived from an image obtained with the CFP filter cube) is selective for CFP fluorescence and thereby gives an optical measure of NTB-CFP expression. Analogously, the SYFP signal, derived from preferential excitation and detection of YFP, estimates I-IIB-YFP levels. Finally, the SFRET signal reflects I-IIB-YFP fluorescence stimulated by FRET transfer from NTB-CFP, as well as secondary cross-talk signals. These three signals can be incorporated within a three-cube FRET algorithm to determine the strength of FRET interaction (“FRET ratio,” FR), independently of cross-talk (Erickson et al., 2001). FR adopts a value of unity in the absence of FRET and grows linearly with increasing FRET efficiency (Erickson et al., 2003). FR values for many individual cells are plotted as circles in FIG. 2Eb, with numerous determinations clearly greater than unity. Alternatively, FR values specified by a YFP-photobleaching methodology were also elevated above unity (triangles) (Bastiaens and Jovin, 1996). […] Consistent with yeast two-hybrid assays, then, FRET assays confirmed a selective propensity for NTB and I-IIB segments to associate.
Human m2 muscarinic acetylcholine receptor (AF498916) was engineered to reduce desensitization (Pals-Rylaarsdam and Hosey, 1997). QuikChange (Stratagene, La Jolla, Calif.) introduced cluster mutations, yielding m2R: residues 286-290 (STSVS/AAAVA), residues 307-311 (TVSTS/AVAAA). For FRET assays, base templates were ECFP/EYFP-tagged calmodulin constructs in pcDNA3 (Invitrogen, Carlsbad, Calif.), as described (Erickson et al., 2001). PCR-amplified channel segments or G proteins were substituted for calmodulin via upstream EcoRI and downstream NheI sites, creating in-frame fusions with fluorophore (ECFP/EYFP C-terminal to test molecules). NTC residues, 1-53; I-IIB residues, 357-482; and I-IIC residues, 436-554.
Experiments were performed mostly as previously described (Erickson et al., 2001; Erickson et al., 2003). Briefly, the FRET Ratio (FR) is the fractional increase in YFP emission due to FRET. […] For donor-dequenching analysis, EEFF is calculated as EEFF=^1−CFPpre/CFPpost, where CFPpre and CFPpost are the CFP emissions before/after 3 min YFP photobleaching. FR is determined by FR=(EEFF/[EYFP/ECFP])+1, where EYFP/ECFP is ratio of YFP and CFP molar extinction coefficients through 440 nm excitation bandpass of FRET cube (0.0574). For binding model analysis, Kd,EFF is the effective dissociation constant, related to actual Kd via filter/microscope optical characteristics. […]
Experiments were performed as described previously for the most part (Erickson et al., 2001; Erickson et al., 2003). Specifically, for quantitative analysis, all fluorescence from single cells were isolated through a pinhole in the image plane, and detected by photo-multiplier tube. In all three-cube FRET experiments, CFP levels were below a threshold where spurious, concentration-dependent FRET became significant (Stratton et al., 2004). Similarly, for donor-dequenching experiments, YFP levels were below an analogous threshold. […]

[2] = target: T2, I-IIC (Oryctolagus cuniculus, UniProt P15381); test: Live-cell FRET two-hybrid assay versus I-IIC in HEK293 cells; format: binding, rabbit; details: compared with NTB/I-IIB pair
T2 construct: I-IIC residues, 436-554; expressed in transfected cells; host or cells: HEK293
T2 sequence (P15381 436-554): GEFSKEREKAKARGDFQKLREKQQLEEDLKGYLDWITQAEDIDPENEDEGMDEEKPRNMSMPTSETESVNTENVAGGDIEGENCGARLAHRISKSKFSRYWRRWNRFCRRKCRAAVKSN
Excerpt: To confirm preferential interaction of NTB with I-IIB a live-cell FRET two-hybrid assay was used (Erickson et al., 2003), in which NTB, NTC, I-IIB, and I-IIC were fused to either CFP or YFP, and the resulting fusion constructs expressed pair-wise in mammalian HEK293 cells. Given a Forster distance of ˜50 Å for the CFP/YFP pair (Patterson et al., 2000), the presence of FRET in individual cells would give a strong indication of interpeptide binding in the mammalian intracellular milieu. This indication is generally characterized by a low false-positive rate (Erickson et al., 2003), so that FRET assays provide a useful complement to yeast two-hybrid assays (Allen et al., 1995). […] SCFP (the signal derived from an image obtained with the CFP filter cube) is selective for CFP fluorescence and thereby gives an optical measure of NTB-CFP expression. Analogously, the SYFP signal, derived from preferential excitation and detection of YFP, estimates I-IIB-YFP levels. Finally, the SFRET signal reflects I-IIB-YFP fluorescence stimulated by FRET transfer from NTB-CFP, as well as secondary cross-talk signals. […]
Experiments were performed mostly as previously described (Erickson et al., 2001; Erickson et al., 2003). […] For donor-dequenching analysis, EEFF is calculated as EEFF=^1−CFPpre/CFPpost, where CFPpre and CFPpost are the CFP emissions before/after 3 min YFP photobleaching. […]

T1 sequence (Q00975 357-482): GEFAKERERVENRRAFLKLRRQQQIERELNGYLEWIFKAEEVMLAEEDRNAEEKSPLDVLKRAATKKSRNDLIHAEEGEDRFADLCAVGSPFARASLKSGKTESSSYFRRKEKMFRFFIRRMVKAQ

Row | Molecule | Kd,EFF relative to NTB/I-IIB ([1]; NTC-CFP versus I-IIB-YFP, lower-limit estimate) [fold] | Kd,EFF / affinity for I-IIB (FRET), in words ([1]; relative dissociation constant, HEK293 cells) | Kd,EFF for I-IIC (FRET), in words [2]
1 | NTC: NH3 terminus of L-type channel α1C subunit, free peptide [reference compound] | ≥ 8 | larger by an order of magnitude or more | larger by an order of magnitude or more
2 | B1 | – | – | larger by an order of magnitude or more

From US7985736B2, “High throughput screen utilizing newly discovered intramolecular neuronal calcium channel interactions to discover new analgesics” (The John Hopkins University, priority 2004, dated 2011)
